In US7109170B2, “Region of factor IXa protease domain that interacts with factor VIIIa and methods therefor” (Saint Louis University, priority 1999, dated 2006):

Biological target: factor X (Homo sapiens, UniProt P00742)
Assay: factor X activation by IXa proteins, Ca2+ and VIIIa, no phospholipid
Type: biochemical
Parameters: Normal human plasma factor IX (IXNP) and factor X were isolated as described in Bajaj and Birktoft; from tissue; host or cells: human plasma (factor X); factor VIII obtained from Dr. Leon Hoyer, American Red Cross
Details: 14 nM VIIIa, 400 nM factor X
Protocol: The ability of each activated mutant to activate factor X in the presence and absence of phospholipid and factor VIIIa was determined as follows. The activation was carried out at 37° C. in a 50 μl reaction volume, in TBS/BSA pH 7.4, for various time periods. At the end of the incubation time period, each reaction mixture received 1 μl of 0.5 M EDTA to stop further generation of factor Xa. A 40 μL aliquot was then added to 0.1 ml quartz cuvette containing S-2222 in 75 μL of TBS/BSA, pH 7.4. The final concentration of S-2222 was 100 μM. The p-nitroaniline release was measured continuously (ΔA405/min) for up to 20 min (Sabharwal et al., 1995 supra; Sabharwal et al., 1997, supra). Factor Xa generated was calculated from a standard curve constructed using factor Xa prepared from insolubilized Russell's viper venom.
Factor X activation measurements were made under four experimental regimes. In one, Ca^2+ and phospholipid were present. In this system activation was carried out for 5–15 minutes and the concentration of each IXa protein was 20 nM, phospholipid was 25 μM, and factor X was 100 nM. In the second regime, Ca^2+, phospholipid and factor VIIIa were present. […] In the third regime, only Ca^2+ was present. Here, activation was carried out for 2–20 min and concentration of each IXa protein was 400 nM and factor X was 1 μM. Finally, in the fourth regime, Ca^2+ and VIIIa were present. Here, activation was carried out for 15–120 sec and the concentration of each IXa protein was 2 μM, VIIIa was 14 nM, and factor X was 400 nM.
In all of the above factor X activation experiments, the incubation times chosen were those in which the factor Xa generated was always less than 10 nM. This precautionary measure was taken to prevent activation of factor X by the generated factor Xa (see, e.g., Link. and Castellino, 1982, Arch Biochem. Biophys. 215, 215–221). Further, in those incubation mixtures which contained […], control experiments were also performed in which factor VIIIa was omitted. […] In the presence of factor VIIIa, 10 μM phospholipid was used based upon previous observations (Mathur et al., 1997, supra; van Dieijen et al., 1981, J. Biol. Chem. 256, 3433–3442). The concentrations of factor X selected for each set of reaction conditions are those which are below or at the Km values (van Dieijen et al., supra; Fay and Koshibu, 1998, J Biol. Chem. 273, 19049–19054). In this region of the Michaelis-Menton curve, the rate of formation of factor Xa is proportional to the substrate factor X and therefore to the affinity of the factor IXa enzyme for factor X.

Chain of factor X (P00742 183-488 limits assumed): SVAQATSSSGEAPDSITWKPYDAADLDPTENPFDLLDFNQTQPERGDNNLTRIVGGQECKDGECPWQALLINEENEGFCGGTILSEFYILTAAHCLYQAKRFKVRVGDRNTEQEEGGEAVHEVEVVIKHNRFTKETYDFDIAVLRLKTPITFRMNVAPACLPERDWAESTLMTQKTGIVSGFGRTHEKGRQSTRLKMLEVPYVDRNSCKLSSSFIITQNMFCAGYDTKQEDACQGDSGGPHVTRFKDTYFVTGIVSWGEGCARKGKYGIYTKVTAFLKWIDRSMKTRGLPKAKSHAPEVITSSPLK
Chain of factor X (P00742 41-179 limits assumed): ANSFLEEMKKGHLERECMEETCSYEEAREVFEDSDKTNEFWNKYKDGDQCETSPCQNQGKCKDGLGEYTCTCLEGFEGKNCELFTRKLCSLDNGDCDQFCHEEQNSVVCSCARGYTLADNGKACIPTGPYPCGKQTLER
Chain of factor X (P00451 20-759 partner limits assumed): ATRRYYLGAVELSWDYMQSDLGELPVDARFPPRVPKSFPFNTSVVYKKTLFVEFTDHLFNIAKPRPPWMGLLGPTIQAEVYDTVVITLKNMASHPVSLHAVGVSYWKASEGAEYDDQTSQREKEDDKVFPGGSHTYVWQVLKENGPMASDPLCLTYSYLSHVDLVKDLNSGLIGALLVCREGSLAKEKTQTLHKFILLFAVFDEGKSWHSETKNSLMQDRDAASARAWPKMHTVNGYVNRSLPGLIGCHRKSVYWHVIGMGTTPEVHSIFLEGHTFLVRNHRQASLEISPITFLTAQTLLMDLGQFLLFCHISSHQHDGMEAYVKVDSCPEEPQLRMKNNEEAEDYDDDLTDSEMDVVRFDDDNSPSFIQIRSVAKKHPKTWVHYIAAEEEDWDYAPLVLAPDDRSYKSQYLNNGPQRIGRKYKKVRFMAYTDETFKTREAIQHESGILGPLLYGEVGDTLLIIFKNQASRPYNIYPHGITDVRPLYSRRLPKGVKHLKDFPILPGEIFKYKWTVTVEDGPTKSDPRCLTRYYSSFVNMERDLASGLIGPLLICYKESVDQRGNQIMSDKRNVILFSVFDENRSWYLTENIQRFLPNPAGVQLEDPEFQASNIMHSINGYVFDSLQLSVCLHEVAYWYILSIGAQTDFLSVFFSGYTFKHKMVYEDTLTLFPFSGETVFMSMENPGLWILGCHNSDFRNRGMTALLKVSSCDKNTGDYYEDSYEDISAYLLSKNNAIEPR
Chain of factor X (P00451 1668-2351 partner limits assumed): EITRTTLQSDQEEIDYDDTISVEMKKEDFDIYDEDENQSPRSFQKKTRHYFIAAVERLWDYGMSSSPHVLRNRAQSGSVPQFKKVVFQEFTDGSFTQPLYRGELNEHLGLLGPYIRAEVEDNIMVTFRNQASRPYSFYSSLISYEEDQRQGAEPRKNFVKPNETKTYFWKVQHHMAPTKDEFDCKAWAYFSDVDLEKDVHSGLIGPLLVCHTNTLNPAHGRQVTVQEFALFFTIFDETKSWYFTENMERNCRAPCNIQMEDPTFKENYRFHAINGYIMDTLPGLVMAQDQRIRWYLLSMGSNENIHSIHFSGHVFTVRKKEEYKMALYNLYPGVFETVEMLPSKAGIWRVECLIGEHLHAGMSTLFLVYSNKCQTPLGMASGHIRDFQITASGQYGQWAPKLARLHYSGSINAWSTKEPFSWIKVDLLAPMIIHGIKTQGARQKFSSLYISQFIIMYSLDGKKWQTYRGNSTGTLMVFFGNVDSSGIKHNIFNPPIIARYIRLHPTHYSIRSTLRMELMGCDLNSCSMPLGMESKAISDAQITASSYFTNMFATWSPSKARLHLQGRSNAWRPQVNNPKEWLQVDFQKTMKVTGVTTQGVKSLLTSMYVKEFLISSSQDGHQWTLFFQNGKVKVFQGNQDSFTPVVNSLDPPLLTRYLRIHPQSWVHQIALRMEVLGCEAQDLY

Substance: IXaV331A: activated factor IX mutant V331A
- X-activation rate, PL-minus system: 0.54 ± 0.02 nM/min
